For this assay, the target named is monomeric recombinant human ASC (Apoptosis-associated speck-like protein containing a caspase recruitment … (human, UniProt Q9ULZ3 1-195)). Briefly: limited proteolysis-coupled mass spectrometry.
monomeric recombinant human ASC (Apoptosis-associated speck-like protein containing a caspase recruitment …, sequence (Q9ULZ3 whole entry): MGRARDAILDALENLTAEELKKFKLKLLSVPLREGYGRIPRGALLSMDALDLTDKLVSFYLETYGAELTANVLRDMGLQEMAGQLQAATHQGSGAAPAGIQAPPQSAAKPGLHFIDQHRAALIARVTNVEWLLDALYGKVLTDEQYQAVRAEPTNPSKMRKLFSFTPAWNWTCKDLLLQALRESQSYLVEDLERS

B1: monomeric recombinant human SAA1 (serum amyloid A1) (natural protein, UniProt P0DJI8 19-122, looked up)
chain: RSFFSFLGEAFDGARDMWRAYSDMREANYIGSDKYFHARGNYDAAKRGPGGAWAAEVITDARENIQRFFGHGAEDSLADQAANEWGRSGKDPNHFRPAGLPEKY
As for B1, the binding result is recorded as “binds”.
